Patent US6750028B1, “Anti-fibrotic agent assay” (Ethicon, Inc, priority 1996, dated 2004)

B1: IGFBP-2: Purified rat Insulin-like Growth Factor Binding Protein 2 (protein, UniProt P12843 35-304, looked up)
Insulin-like growth …: EVLFRCPPCTPERLAACGPPPDAPCAELVREPGCGCCSVCARQEGEACGVYIPRCAQTLRCYPNPGSELPLKALVTGAGTCEKRRVGATPQQVADSEDDHSEGGLVENHVDGTMNMLGGSSAGRKPPKSGMKELAVFREKVNEQHRQMGKGAKHLSLEEPKKLRPPPARTPCQQELDQVLERISTMRLPDDRGPLEHLYSLHIPNCDKHGLYNLKQCKMSLNGQRGECWCVNPNTGKPIQGAPTIRGDPECHLFYNEQQENDGAHAQRVQ
B2: IGFBP-1: Purified rat Insulin-like Growth Factor Binding Protein 1 (protein, UniProt P21743 26-272, looked up)
Insulin-like growth …: APQPWHCAPCTAERLELCPPVPASCPEISRPAGCGCCPTCALPLGAACGVATARCAQGLSCRALPGEPRPLHALTRGQGACVLEPAAPATSSLSGSQHEEAKAAVASEDELAESPEMTEEQLLDSFHLMAPSREDQPILWNAISTYSSMRAREITDLKKWKEPCQRELYKVLERLAAAQQKAGDEIYKFYLPNCNKNGFYHSKQCETSLDGEAGLCWCVYPWSGKKIPGSLETRGDPNCHQYFNVQN

System: TGF-β1 activation
Test: Macrophage activation assay (IC-21 macrophages, LPS, fetal fibroblast conditioned media, ELISA)
Format: cell-based, mouse
Description: Cultured macrophages were lifted from the dish with 3 ml of PBS. The PBS was balanced with 15 ml of RPMI-1640 containing 10% FBS. The cells were counted and then seeded in 100 mm plates at 1×10^6 cells/dish. When the cultured macrophages reached approximately 70% confluency (2-3 days) they were washed with PBS and RPMI-1640 medium containing 5% FBS and 10 ng/ml LPS was applied (FIG. 1). After 24 h of activation with LPS the cells were washed gently with PBS. At this point conditioned medium from confluent fetal dermal fibroblasts was collected and 5 ml was distributed into each dish containing macrophages. The cells were incubated for an additional 24 h, the media were collected, spun down at 600×g for 10 min and stored at 4° C. before TGF-β1 evaluation by ELISA. Each condition was done in duplicate. The cells, washed with PBS, were harvested for total RNA extraction.
Fetal dermal fibroblasts were seeded in 100 mm dishes at 1×10^6 cell/dish. The cells were grown to confluency (2-3 days). The cultures were washed with PBS and fresh medium, either DMEM supplemented with 10% FBS or AIM-V medium (a serum free medium) for serum-free conditions, was applied for 24 h (FIG. 1). The medium was collected and combined in order to obtain a homogenous pool of latent TGF-β1. The collection of the medium was done just prior to application in the macrophage assay. […]

| Molecule | effect on IGF-II-mediated inhibition of TGF-β1 activation, in words |
| --- | --- |
| B1 | no effect on IGF-II action |
| B2 | able to reverse this inhibition |
